T1: GST-ANI-1^C-term (681-1159 AA) (C. elegans, UniProt Q9XTT4 681-1159)
T1 construct: ANI-1 (anillin homolog), C. elegans, residues 681-1159 comprising the RBD, C2 region and PH domain; Cloned into pGEX-4T; used on the beads directly in the pull-down; also called GST-tagged C-terminus of ANI-1; anillin C-terminus; source: E. coli BL21 (DE3), purified on Glutathione Sepharose 4B beads
T1 sequence (looked up): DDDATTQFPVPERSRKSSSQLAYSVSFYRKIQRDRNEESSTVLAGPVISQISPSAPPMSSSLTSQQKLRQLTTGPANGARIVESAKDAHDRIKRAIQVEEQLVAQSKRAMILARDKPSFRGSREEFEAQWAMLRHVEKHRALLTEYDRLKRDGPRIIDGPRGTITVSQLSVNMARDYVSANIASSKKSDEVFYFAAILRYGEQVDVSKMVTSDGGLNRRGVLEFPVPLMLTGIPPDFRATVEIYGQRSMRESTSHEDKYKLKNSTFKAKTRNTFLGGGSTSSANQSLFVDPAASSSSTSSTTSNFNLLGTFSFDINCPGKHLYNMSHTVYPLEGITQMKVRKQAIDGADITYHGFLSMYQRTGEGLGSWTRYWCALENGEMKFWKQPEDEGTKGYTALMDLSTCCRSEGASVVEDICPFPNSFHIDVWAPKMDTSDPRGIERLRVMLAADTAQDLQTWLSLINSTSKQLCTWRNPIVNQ

T2: GST-ANI-1^Link+C-term (460-1159 AA) (C. elegans, UniProt Q9XTT4 460-1159)
T2 construct: ANI-1 (anillin homolog), C. elegans, residues 460-1159: linker region, RBD, C2 region and PH domain; Cloned into pGEX-4T; used on the beads directly in the pull-down; also called protein consisting of the linker region and C-terminus; source: E. coli BL21 (DE3), purified on Glutathione Sepharose 4B beads
T2 sequence (looked up): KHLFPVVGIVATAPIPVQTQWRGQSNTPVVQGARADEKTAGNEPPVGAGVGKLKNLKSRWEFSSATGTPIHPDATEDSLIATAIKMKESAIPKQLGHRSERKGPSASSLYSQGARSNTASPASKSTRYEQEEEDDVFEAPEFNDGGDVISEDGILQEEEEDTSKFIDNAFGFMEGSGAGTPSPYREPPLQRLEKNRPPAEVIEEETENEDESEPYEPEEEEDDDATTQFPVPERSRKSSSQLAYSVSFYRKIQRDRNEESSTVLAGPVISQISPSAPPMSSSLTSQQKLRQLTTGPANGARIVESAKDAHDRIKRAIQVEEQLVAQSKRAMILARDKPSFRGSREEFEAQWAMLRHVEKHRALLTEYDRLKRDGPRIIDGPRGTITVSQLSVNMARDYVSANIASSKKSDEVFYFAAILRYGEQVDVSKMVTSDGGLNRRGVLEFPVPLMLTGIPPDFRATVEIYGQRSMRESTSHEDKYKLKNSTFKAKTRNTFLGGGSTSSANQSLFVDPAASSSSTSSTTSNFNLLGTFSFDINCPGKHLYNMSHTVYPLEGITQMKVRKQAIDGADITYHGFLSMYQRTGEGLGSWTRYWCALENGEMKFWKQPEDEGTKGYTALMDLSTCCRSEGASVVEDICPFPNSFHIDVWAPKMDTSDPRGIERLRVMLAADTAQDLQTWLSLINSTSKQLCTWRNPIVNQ

B1: 10xHis-RHO-1^WT (wild type RHO-1, 1-188 AA) (domain or fragment)
chain: not shown
notes: RHO-1 (RhoA in humans), C. elegans, residues 1-188 (without the CAAX motif), amplified from cDNA; Cloned into pET-19b; also called His-tagged RHO-1; RhoA; source: E. coli BL21 (DE3), purified (Ni-NTA)
B2: 10xHis-RHO-1^Q63L (constitutively active RHO-1, 1-188 AA) (domain or fragment)
chain: not shown
notes: RHO-1 (RhoA in humans), C. elegans, residues 1-188, with Q63L made by site-directed mutagenesis of the wild type construct; Cloned into pET-19b; source: E. coli BL21 (DE3), purified (Ni-NTA)

Key:
[1] = target: T1, GST-ANI-1^C-term (681-1159 AA); test: pull-down; ~4 μg GST-ANI-1 fragment on Glutathione Sepharose beads mixed with ~4 μg purified 10xHis-RHO-1 in 300 μl binding buffer (20 mM Tris pH 7.4, 150 mM NaCl, 5 mM MgCl2, 0.1% Triton X-100, 1 mM DTT) with 1 mM GTP, 4°C, 1.5 h; bound RHO-1 detected by anti-His immunoblot; details: both partners purified
[2] = target: T2, GST-ANI-1^Link+C-term (460-1159 AA); test: as above; details: both partners purified

Row | Binder | binding result [1] | binding result [2]
1 | B1 | binds | 
2 | B2 | binds | binds
